From paper PMC3481325

Molecular target: HLA A*0201 (soluble, the MHC part of the HLA A*0201-peptide complexes)
Assay: SPR

Substance: […] peptide (Melan A 26-35)
- t½ of the HLA A*0201-peptide complex: 8 h
